Test results reported in patent publication US20220185900A1 (Regeneron, published 2022).

T1: Macaca fascicularis (mf) RET.mmh (Macaca fascicularis)
T1 construct: also called monkey RET
T1 chain: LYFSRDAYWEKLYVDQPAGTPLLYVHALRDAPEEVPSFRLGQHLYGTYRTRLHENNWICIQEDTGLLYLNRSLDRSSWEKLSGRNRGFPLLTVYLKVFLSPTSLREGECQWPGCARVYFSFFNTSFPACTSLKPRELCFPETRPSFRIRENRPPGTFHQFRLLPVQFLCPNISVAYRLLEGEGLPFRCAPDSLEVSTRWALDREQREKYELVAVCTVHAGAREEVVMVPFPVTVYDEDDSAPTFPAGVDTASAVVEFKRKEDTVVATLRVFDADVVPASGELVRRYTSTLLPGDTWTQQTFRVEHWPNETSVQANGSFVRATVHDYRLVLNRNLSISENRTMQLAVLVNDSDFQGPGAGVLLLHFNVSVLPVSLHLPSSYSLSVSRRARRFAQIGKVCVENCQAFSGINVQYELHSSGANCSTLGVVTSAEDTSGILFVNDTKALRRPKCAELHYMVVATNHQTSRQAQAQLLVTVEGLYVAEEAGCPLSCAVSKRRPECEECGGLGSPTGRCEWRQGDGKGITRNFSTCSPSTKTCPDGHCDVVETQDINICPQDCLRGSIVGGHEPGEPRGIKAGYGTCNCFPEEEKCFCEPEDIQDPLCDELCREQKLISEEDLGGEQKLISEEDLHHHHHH

B1: H4H8079P (antibody, human IgG4, V domains shown)
VH: EVQLVESGGGLVKPGGSLRLSCAASGFTFSNAWMSWVRQAPGKGLEWVGRIKSKTDGGTSEYAAPVKGRFTISRDDSKNTLFLQMNSLKSEDAAVYYCTTGRSWSDYFDFWGQGTLVTVSS
VL: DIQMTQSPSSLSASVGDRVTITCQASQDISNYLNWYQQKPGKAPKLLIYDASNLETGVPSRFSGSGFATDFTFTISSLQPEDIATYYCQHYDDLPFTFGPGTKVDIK
notes: human IgG4 Fc (H4H prefix)
B2: H4H8046P (antibody, human IgG4, V domains shown)
VH: QVQLVQSRDEVKKPGASVKVSCKASGYTFTTYGISWVRQAPGQGLEWMGWINTYNGDTNYAQKVQDRVIMTTDTSTSTAYMELRSLRSDDTAVYFCAGARPLGGRRAFDIWGQGTMVTVSS
VL: DIQMTQSPSSLSASVGDRVTITCRASQGISHYLAWYQQKPGKVPKLLIYAASTLQSGVPSRFSGSGSGTDFTLTISSLQPEDVATYYCQKYNSVPWTFGQGTKVEIK
notes: human IgG4 Fc (H4H prefix)
B3: H4H8045P (antibody, human IgG4, V domains shown)
VH: EVQLVESGGALVQPGGSLRLSCAASGFTFSNYAMTWVRQAPGMGLEWVSGISSSGASTFYADSVKGRFTISRDNSKNTLYLQMNSLRAEDTAVYYCAKEDYWGWFDYWGQGTLVTVSS
VL: DIQLTQSPSFLSASVGDRVTITCWASQDVSSYLAWYQQEPGKAPKVLIYDASTLQSGVPSRFSGSGSGTEFTLTISSLQPEDFAPYYCQQLNSYPYTFGQGTKLEIK
notes: human IgG4 Fc (H4H prefix)
B4: H4H8044P (antibody, human IgG4, V domains shown)
VH: QVQLVESGGGVVQPGRSLRLSCAASGFTFSGSGMHWVRQAPGKGLEWVAVIWEDGSNKYYADSVRGRFTISRDNFKNTLYLQMNSLRAEDTAVYYCARQTMVRGVIRFYYYYYGMDVWGQGTTVTVSS
VL: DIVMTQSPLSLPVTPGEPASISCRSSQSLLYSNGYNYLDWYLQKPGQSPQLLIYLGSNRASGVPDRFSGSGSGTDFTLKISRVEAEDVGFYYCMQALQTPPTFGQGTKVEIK
notes: human IgG4 Fc (H4H prefix)

biological target: T2, hRET.mmh (human, UniProt P07949 29-635, biotinylated in the ELISA of Example 4 (biot-hRET.mmh); not in the SPR of Example 3); assay: SPR Biacore T200, mAb capture, 25 C
T2 construct: also called biot-hRET.mmh; soluble monomeric human RET
Description: (§1) Binding affinities and kinetic constants of human anti-RET antibodies were determined by surface plasmon resonance (Biacore T200) at […] (Tables 2-3). […] Binding equilibrium dissociation constants (KD) and dissociative half-lives (t_{1/2}) were calculated from the kinetic rate constants as: KD [M]=kd/kₐ; and t_{1/2}(min)=(ln2/(60*kd). Calculations were performed using BiacoreT200 evaluation software v1.0.

Kd [nM]	koff [s⁻¹]	kon [M⁻¹ s⁻¹]	t½ [min]	Binder
2.68	0.000384	143000	30	B1
0.984	0.000301	306000	38	B2
0.883	0.000246	279000	47	B3
5.49	0.000488	88800	24	B4

Biological target: T1, Macaca fascicularis (mf) RET.mmh
Assay: SPR Biacore T200, mAb capture, 25 C
Description: as §1

Kd [nM]	koff [s⁻¹]	kon [M⁻¹ s⁻¹]	t½ [min]	Binder
3.73	0.000435	117000	27	B1
1.13	0.000315	278000	37	B2
14.6	0.0028	192000	4	B3
14.7	0.00135	92000	9	B4

biological target: T3, hRET.mFc (human); assay: SPR Biacore T200, mAb capture, 25 C
T3 construct: also called dimeric human RET
Description: as §1

Kd [nM]	koff [s⁻¹]	kon [M⁻¹ s⁻¹]	t½ [min]	Binder
0.72	0.000151	209000	77	B1
0.645	0.000181	280000	64	B2
0.229	8.71e-05	381000	133	B3
1.97	0.000211	107000	55	B4

biological target: T2, hRET.mmh; assay: SPR Biacore T200, mAb capture, 37 C
Description: as §1

Kd [nM]	koff [s⁻¹]	kon [M⁻¹ s⁻¹]	t½ [min]	Binder
9.1	0.00189	207000	6	B1
1.81	0.0013	718000	9	B2
3.22	0.00127	395000	9	B3
18.6	0.00281	151000	4	B4

Biological target: T1, Macaca fascicularis (mf) RET.mmh
Assay: SPR Biacore T200, mAb capture, 37 C
Description: as §1

Kd [nM]	koff [s⁻¹]	kon [M⁻¹ s⁻¹]	t½ [min]	Binder
13.3	0.00205	154000	6	B1
1.92	0.00135	704000	9	B2
50.3	0.0131	261000	1	B3
48.5	0.00521	108000	2	B4

biological target: T3, hRET.mFc; assay: SPR Biacore T200, mAb capture, 37 C
Description: as §1

Kd [nM]	koff [s⁻¹]	kon [M⁻¹ s⁻¹]	t½ [min]	Binder
2	0.000523	261000	22	B1
2.05	0.000694	338000	17	B2
0.834	0.000382	459000	30	B3
6.21	0.00085	137000	14	B4

biological target: T2, hRET.mmh; assay: competition sandwich ELISA: 1 nM biot-hRET.mmh + antibody, plate-coated GDNF/GFRα1 co-complex
Description: The ability of anti-RET antibodies to block the binding of human RET to pre-complexed plate bound GDNF:GFRα1 was assessed using a competition sandwich ELISA.
Antibody-RET mixtures were incubated for 1 hour at RT and then transferred to microtiter plates previously coated with the hGDNF/hGFRα1 co-complex. Binding was allowed to proceed for 1 hr at RT followed by extensive washing. […] Plates were read at 450 nm and data analysis used a sigmoidal dose-response model within Prism™ software.
The absorbance values of the wells containing the highest concentration for each antibody were used to determine the blocking percent at maximum concentration antibody tested.

% Max Blocking [%]	IC50 [nM]	Binder
93	< 0.25	B1
95	< 0.25	B2
75	0.34	B3
91	5.2	B4
